Laboratory results from US20050113293A1.
[ ]: non-standard residue; d: D form. Hyp = O=C(O)[C@@H]1C[C@@H](O)CN1

What was measured:
[1] = biological target: binding site for [125I]AAP10 on intact CHO cells (AAP receptor); assay: in situ displacement of [125I]AAP10 on intact CHO cells
[2] = biological target: binding site for [125I]AAP10 on intact CHO cells (AAP receptor); assay: cell-based or functional assay
[3] = biological target: binding site for [125I]AAP10 in murine heart tissue preparations (AAP receptor) (mouse); assay: displacement of 0.8 nM [125I]AAP10, murine heart filtrate
[4] = biological target: binding site for [125I]AAP10 in murine heart tissue preparations (AAP receptor) (mouse); assay: displacement of 0.8 nM [125I]AAP10, murine heart membranes

IC50 [1] [nM]	Inhibition of forskoline stimulated cAMP formation in CHO cells, EC50 [2] [nM]	IC50 [3] [nM]	IC50 [4] [nM]	Molecule
0.5	6.2	3.6	1.2	Ac-D-Tyr-D-Pro-D-4Hyp-Gly-D-Ala-Gly-NH2 (Compound 2) (peptide)
0.8	53	1.2	–	H-GP[Hyp]GAG-OH (SMILES C[C@H](NC(=O)CNC(=O)[C@@H]1C[C@@H](O)CN1C(=O)[C@@H]1CCCN1C(=O)CN)C(=O)NCC(=O)O) [H-Gly-Pro-Hyp-Gly-Ala-Gly-OH (AAP)]
130	11	1.2	–	H-GAG[Hyp]PY-NH2 [H-Gly-Ala-Gly-Hyp-Pro-Tyr-NH2 (AAP10)]

Continued, molecule first:

Molecule	IC50 [1] [nM]	Inhibition of forskoline stimulated cAMP formation in CHO cells, EC50 [2] [nM]	IC50 [3] [nM]	IC50 [4] [nM]
Ac-D-Tyr(3,5-di-I)-D-Pro-D-Hyp-Gly-D-Ala-Gly-NH2 (Compound 24) (peptide)	65	–	–	–
{ASAL(mono-iodo)}-P[Hyp]GAG-NH2 [ASAL(mono-iodo)-Pro-Hyp-Gly-Ala-Gly-NH2 (Compound 32)]	0.5	–	–	–
